Results published in patent US11066455B2, “Tmem100 peptides and variants thereof and their use in treating or preventing diseases or conditions” (The Johns Hopkins University, priority 2014, dated 2021).
Substitutions are numbered along the chain they refer to.

B1: Tmem100-3Q mutant (full-length, mouse) (protein)
chain: MTEESTKENLGAPKSPTPVTMEKNPKREVVVTTGPLVSEVQLMAATGGAELSCYRCIIPFAVVVFITGIVVTAVAYSFNSHGSIISIFGLVLLSSGLFLLASSALCWKVRQRNKKVQQQESQTALVVNQRCLFA
B2: Tmem100: 134-amino acid two-transmembrane protein, regulator of TRPA1 (SEQ ID NO: 1/2), expressed in cells (protein, listed as Homo sapiens, listed as Mus musculus)
chain 1: MTEEPIKEILGAPKAHMAATMEKSPKSEVVITTVPLVSEIQLMAATGGTELSCYRCIIPFAVVVFIAGIVVTAVAYSFNSHGSIISIFGLVVLSSGLFLLASSALCWKVRQRSKKAKRRESQTALVANQRSLFA
chain 2: B1 chain with Q117K, Q118R, Q119R

Tests used:
TRPA1 [1] = test: Cell-attached single-channel recording in CHO cells, MO-induced activity (NPo); format: cell-based; details: Vh=-60 mV; co-expressed with TRPA1 only (1:4) in CHO cells
Protocol: (§1) Recordings were made in cell-attached single-channel or whole-cell voltage clamp configurations at 22-24° C. from the somata of small-to-medium mouse DRG neurons (15-35 pF) or CHO cells. For whole-cell configuration, holding potential (Vh) is −60 mV. Data were acquired and analyzed using an Axopatch 200B amplifier and pCLAMP9.0 software (Molecular Devices, Sunnyvale, Calif.). Borosilicate pipettes (Sutter, Novato, Calif.) were pulled and polished to resistances of 3-5 MΩ (in whole-cell and single-channel pipette solutions). Access resistance (Rs) was compensated (40-80%) when appropriate up to the value 7-10 MΩ for whole-cell configuration. Whole-cell recording data were filtered at 0.5 kHz and sampled at 2 kHz. Single-channels currents were filtered with an 8-pole, low pass Bessel filter at 0.1 kHz and sampled at 0.5 kHz, since dwelling time (τ) of the TRPA1 and TRPV1 single-currents were >0.5 sec. Whole-cell recorded data were rejected when Rs changed >20% during recording, leak currents were >100 pA, or input resistance was <200 MΩ.
(§2) Single-channel unitary current (i) was determined from the best-fit Gaussian distribution of amplitude histograms. Single-channel activity was analyzed as NPo=I/i, where I is the mean total current in a patch and i is unitary current at this voltage. For single channel slope conductances, linear fitting was used separately for positive and negative holding potentials. The slope conductances presented in figures were determined from fitting negative hold potentials (from −60 to 0 mV). The single-channel recording data were analyzed with Clampfit 9 software. This has an “event detection analysis” function that analyzes current traces and determines the number of channels in the patch (N), how many sub-conductances are present, and what the main conductance is. In order to increase the accuracy of the Po measurement, only patches containing fewer than 3 channels were used. For patches containing both TRPA1 and TRPV1, only those with equal numbers of TRPA1 and TRPV1 were used. This was monitored in each recording by applying MO and then CAP.
(§3) Standard external solution (SES) for whole-cell patch recording contained (in mM): 140 NaCl, 5 KCl, 2 CaCl2, 1 MgCl2, 10 D-glucose and 10 HEPES, pH 7.4. Vehicle, which is 0.01% DMSO, was added to external solutions. The bath solution for single-channel recording (SES-SCh) of TRP currents consisted of (in mM): 100 K-gluconate, 4 KCl, 1 MgCl2, 1 EGTA, 10 D-glucose and 10 Hepes (pH 7.3). The standard pipette solution (SIS) for the whole-cell configurations contained (in mM): 140 KCl, 1 MgCl2, 1 CaCl2, 10 EGTA, 10 D-glucose, 10 HEPES, pH 7.3. […] The baseline activities of the cells were recorded for 1-2 min prior drug applications. […]

TRPA1 [2] = system: T1, TRPA1; test: as above; format: cell-based; details: Vh=-60 mV; co-expressed with TRPA1+TRPV1 (1:1:4) in CHO cells
T1 construct: MO (10 μM)-evoked Ca2+ influx; other: TRPA1+TRPV1+Tmem100-3Q (1:1:4) CHO cells; MO (10 μM)-gated whole-cell current density; other: Vh=-60 mV; TRPA1+TRPV1+Tmem100-3Q (1:1:4) CHO cells; MO (10 μM)-induced single-channel activity (NPo); co-expressed with TRPA1+TRPV1 (1:1:4) in CHO cells
Protocol: as §1, §2, §3

Row | Molecule | MO (10 μM)-induced single-channel activity (NPo) (TRPA1 [1]) | MO (10 μM)-induced single-channel activity (NPo) (TRPA1 [2])
1 | B1 | 1.05±0.14 | 0.16±0.06
2 | B2 | 0.64±0.18 | 1.05±0.14
